Five substances from patent CN117138036A can be followed below.

Assay [1] has as its target IL-4Rα (UniProt P24394). Put plainly: blocking ELISA: IL-4Rα coated, biotin-IL-4; hIgG is the control, fitted value as printed. Background: In an ELISA, binding on a coated surface is turned into a signal by an enzyme label.
Assay [2] concerns the target IL-5 (human) (UniProt P05113). Put plainly: cell-based or functional assay.
The target of assay [3] is IL-4Rα (UniProt P24394). The experiment in a line: cell-based or functional assay.
The target in assay [4] is 混合人源IL-4、IL-5 (human) (UniProt P05112). The experiment in a line: cell-based or functional assay.

What is called EC50 is the concentration needed to bring the measured effect to its halfway point. A higher EC50 goes with weaker potency. In turn, hIgG (antibody) gave an EC50 in assay [1] of 2.04 nM. Also, the EC50, 中和IL-5诱导的TF-1细胞增殖 (control) in assay [2] came to 0.108 nM. In assay [3], this substance came in with an EC50, 中和IL-4诱导的TF-1细胞增殖 (control) of 0.375 nM and an EC50, 中和IL-13诱导的TF-1细胞增殖 (control) of 0.131 nM.

As to Mepolizumab (antibody), in assay [4], the EC50, IL4:IL5=1:1混合诱导TF-1增殖, 板7 came out at 14.9 nM; the EC50, IL4:IL5=1:2混合诱导TF-1增殖, 板9 was determined as 0.00104 nM; the EC50, IL4:IL5=1:3混合诱导TF-1增殖, 板11 was 0.00147 nM; the EC50, IL4:IL5=1:4混合诱导TF-1增殖, 板13 came out at 1.1 nM. Moreover, in assay [4], the EC50, IL4:IL5=2:1混合诱导TF-1增殖, 板5 was determined as 2.94 nM; the EC50, IL4:IL5=3:1混合诱导TF-1增殖, 板3 was 0.00132 nM; the EC50, IL4:IL5=4:1混合诱导TF-1增殖, 板1 was determined as 0.0013 nM; the 试验窗口, IL4:IL5=1:1混合诱导TF-1增殖, 板7 was 1.11 倍. In addition, in assay [4], the 试验窗口, IL4:IL5=1:2混合诱导TF-1增殖, 板9 was 1.06 倍; the 试验窗口, IL4:IL5=1:3混合诱导TF-1增殖, 板11 was 1.01 倍; the 试验窗口, IL4:IL5=1:4混合诱导TF-1增殖, 板13 is 1.14 倍; the 试验窗口, IL4:IL5=2:1混合诱导TF-1增殖, 板5 was 0.99 倍. Also, in assay [4], the 试验窗口, IL4:IL5=3:1混合诱导TF-1增殖, 板3 is 1.05 倍 and the 试验窗口, IL4:IL5=4:1混合诱导TF-1增殖, 板1 was 1.02 倍.

In assay [4], dupilumab (antibody) yielded an EC50, IL4:IL5=1:1混合诱导TF-1增殖, 板7 of 0.57 nM; an EC50, IL4:IL5=1:2混合诱导TF-1增殖, 板9 of 0.899 nM; an EC50, IL4:IL5=1:3混合诱导TF-1增殖, 板11 of 0.343 nM; an EC50, IL4:IL5=1:4混合诱导TF-1增殖, 板13 of 0.156 nM. Further, in assay [4], the EC50, IL4:IL5=2:1混合诱导TF-1增殖, 板5 was determined as 0.452 nM; the EC50, IL4:IL5=3:1混合诱导TF-1增殖, 板3 was found to be 0.448 nM; the EC50, IL4:IL5=4:1混合诱导TF-1增殖, 板1 is 0.813 nM; the 试验窗口, IL4:IL5=1:1混合诱导TF-1增殖, 板7 is 1.77 倍. Moreover, in assay [4], the 试验窗口, IL4:IL5=1:2混合诱导TF-1增殖, 板9 is 1.68 倍; the 试验窗口, IL4:IL5=1:3混合诱导TF-1增殖, 板11 is 1.53 倍; the 试验窗口, IL4:IL5=1:4混合诱导TF-1增殖, 板13 was 1.58 倍; the 试验窗口, IL4:IL5=2:1混合诱导TF-1增殖, 板5 is 1.6 倍. Further, the 试验窗口, IL4:IL5=4:1混合诱导TF-1增殖, 板1 in assay [4] is 1.77 倍.

For the substance “Human IgG1,kappa Isotype Control (antibody)”, in assay [4], the EC50, IL4:IL5=1:1混合诱导TF-1增殖, 板8 was 14.7 nM; the EC50, IL4:IL5=1:2混合诱导TF-1增殖, 板10 was 0.00264 nM; the EC50, IL4:IL5=1:3混合诱导TF-1增殖, 板12 turned out to be 0.00193 nM; the EC50, IL4:IL5=3:1混合诱导TF-1增殖, 板4 stood at 0.000915 nM. Also, in assay [4], the EC50, IL4:IL5=4:1混合诱导TF-1增殖, 板2 worked out at 0.105 nM; the 试验窗口, IL4:IL5=1:1混合诱导TF-1增殖, 板8 was 1.07 倍; the 试验窗口, IL4:IL5=1:2混合诱导TF-1增殖, 板10 was 0.99 倍; the 试验窗口, IL4:IL5=1:3混合诱导TF-1增殖, 板12 is 0.95 倍. Also, in assay [4], the 试验窗口, IL4:IL5=1:4混合诱导TF-1增殖, 板14 was 1.03 倍; the 试验窗口, IL4:IL5=2:1混合诱导TF-1增殖, 板6 is 0.99 倍; the 试验窗口, IL4:IL5=3:1混合诱导TF-1增殖, 板4 was 1.02 倍; the 试验窗口, IL4:IL5=4:1混合诱导TF-1增殖, 板2 was 1.01 倍.

On to Dupilumab+Mepolizumab(1:1混合), for which, in assay [4], the EC50, IL4:IL5=1:1混合诱导TF-1增殖, 板8 was 1.73 nM; the EC50, IL4:IL5=1:2混合诱导TF-1增殖, 板10 was determined as 1.96 nM; the EC50, IL4:IL5=1:3混合诱导TF-1增殖, 板12 turned out to be 0.88 nM; the EC50, IL4:IL5=1:4混合诱导TF-1增殖, 板14 worked out at 0.395 nM. Also, in assay [4], the EC50, IL4:IL5=2:1混合诱导TF-1增殖, 板6 amounted to 1.28 nM; the EC50, IL4:IL5=3:1混合诱导TF-1增殖, 板4 came to 0.965 nM; the EC50, IL4:IL5=4:1混合诱导TF-1增殖, 板2 turned out to be 0.825 nM; the 试验窗口, IL4:IL5=1:1混合诱导TF-1增殖, 板8 was 1.92 倍. In assay [4], the 试验窗口, IL4:IL5=1:2混合诱导TF-1增殖, 板10 was 1.62 倍; the 试验窗口, IL4:IL5=1:3混合诱导TF-1增殖, 板12 was 1.76 倍; the 试验窗口, IL4:IL5=1:4混合诱导TF-1增殖, 板14 was 1.79 倍; the 试验窗口, IL4:IL5=2:1混合诱导TF-1增殖, 板6 is 1.76 倍. In addition, in assay [4], the 试验窗口, IL4:IL5=3:1混合诱导TF-1增殖, 板4 was 1.67 倍 and the 试验窗口, IL4:IL5=4:1混合诱导TF-1增殖, 板2 is 1.68 倍.
